Results reported in US20210403578A1 (Stanford University, published 2021).

Target: T1, Fz8-CRD (UniProt Q9H461 32-151, limits assumed, fluorescence-conjugated)
T1 construct: domain: CRD; also called Fzd8-CRD; frizzled (Fz8-CRD)
T1 sequence (looked up): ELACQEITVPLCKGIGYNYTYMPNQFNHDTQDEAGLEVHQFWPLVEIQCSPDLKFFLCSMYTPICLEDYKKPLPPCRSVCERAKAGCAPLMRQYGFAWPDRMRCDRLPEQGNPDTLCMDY
Test: yeast surface display with fluorescence-conjugated Fz8-CRD
From the text: Fz27 was expressed in a construct enabling binding to be confirmed via yeast surface display using fluorescence-conjugated Fz8-CRD.

B1: uncharacterized protein Bh1478 from Bacillus halodurans (other)
chain: MDVQRVGKAGLHRVDSKKQQTAAGVSFSEVMGKQRDEKAYERLQALMSKIDDQGKLLSETRTIEELRKYKELVKEFVGDAVELGLRLEERRGFNRRGRTKIYKIVKEVDRKLLDLTDAVLAKEKKGLDILNMVGEIKGLLINIYA
notes: also called 2QUP; wild-type scaffold
Q: Does B1 bind?
A: no binding
